Our source for the non-specific binding call values is the emibetuzumab library of Makowski et al. (2022).

To fix the notation:
B1: VH:VL chains; a variant is named by its letters at X, in order (parent)
chain 1: QVQLVQSGAEVKKPGASVKVSCKASGYTFTDYXMHWVRQAPGQGLEWMGXVNPNXXXTTYNQKFEGRVTMTTDTSTSTAYMELRSLRSDDTAVYYCARXNXLDXWGQGTTVTVSS
chain 2: DIQMTQSPSSLSASVGDRVTITCSVSSSVSSIYLHWYQQKPGKAPKLLIYSTSNLASGVPSRFSGSGSGTDFTLTISSLQPEDFATYYCQVYSGYPLTFGGGTKVEIK

Variants of B1 are the subject of this series. As to the kind of experiment: yeast display scFab, FACS + sequencing. The procedure, abridged:
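For the non-specific binding call, a heavy-chain CDR mutant scFab library on the yeast surface was FACS-sorted and samples from two replicates were deep sequenced. Cells were labelled with anti-Myc and either biotinylated ovalbumin (260 μg/mL in PBSB, 3 h, room temperature) or soluble membrane proteins (130 μg/mL, 20 min on ice), with gates on the top 25% and bottom 10% of binders. With membrane protein and ovalbumin samples pooled, a sequence in ≥3 of 4 positive samples and no negatives was scored positive, and the converse rule scored negatives.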
VKGRSDAS: the non-specific binding call is “no binding”.

For FKKEGYGD, the non-specific binding call is “binds”.

With VKGRSDWV, the non-specific binding call is “no binding”.

For DKGRSAGD, the non-specific binding call is reported as “no binding”.

Take DKGRSVGV: the non-specific binding call was “no binding”.

As for YKGRGFSD, the non-specific binding call was “binds”.

Regarding VKGRGFAA, the non-specific binding call is listed as “binds”.

Regarding SKKEDSAD, the non-specific binding call is “no binding”.

In the case of VKGRSDSA, the non-specific binding call is listed as “no binding”.

In the case of AKGTASGD, the non-specific binding call is “binds”.

Consider YKGRGFWA, for which the non-specific binding call is reported as “binds”.

As for YKGRGFVY, the non-specific binding call is “binds”.

Take SKGRSDVS: the non-specific binding call is “no binding”.

Take SKGRSDVF: the non-specific binding call is reported as “no binding”.

For the variant SKGRSDVV, the non-specific binding call is given as “no binding”.

Turning to SKGRSDVY, the non-specific binding call is on record as “no binding”.

Regarding DKGTDVGA, the non-specific binding call is on record as “binds”.

As for YKKESDSY, the non-specific binding call is “no binding”.

As to VKKEDDVV, the non-specific binding call is on record as “no binding”.

Turning to YKGRGVVV, the non-specific binding call is on record as “binds”.

VKGRTSVY: the non-specific binding call is given as “no binding”.

Turning to VKGRGSWS, the non-specific binding call is “binds”.

For VKGRGSWY, the non-specific binding call is listed as “binds”.

Turning to VKGRGSWA, the non-specific binding call is reported as “binds”.

As for YKGRSASV, the non-specific binding call was “no binding”.

Regarding VKGTDAWY, the non-specific binding call was “no binding”.

Regarding FKGRGVWV, the non-specific binding call is on record as “binds”.

On to FKGRGFGV, for which the non-specific binding call is “binds”.

In the case of VKGRGVVD, the non-specific binding call is reported as “binds”.

For VKGRGSAA, the non-specific binding call is “binds”.

For VKGRGSAY, the non-specific binding call was “binds”.

VKGRGSAD: the non-specific binding call is “binds”.

Regarding YKGRGYSY, the non-specific binding call was “binds”.

As to SKGRSDAV, the non-specific binding call is given as “no binding”.

With VKGRGSSF, the non-specific binding call is given as “no binding”.

For the variant YKGRGDWY, the non-specific binding call is given as “binds”.

Turning to DKKEDSAD, the non-specific binding call is “no binding”.

On to FKGRGAWS, for which the non-specific binding call is given as “binds”.

Regarding FKGRGAWV, the non-specific binding call was “binds”.

With YKGRGAVS, the non-specific binding call is on record as “binds”.

Turning to VKGRGASV, the non-specific binding call was “binds”.

On to DKGRGSSA, for which the non-specific binding call is given as “no binding”.

As for YKGRGFAY, the non-specific binding call is given as “binds”.

Regarding SKGRGAWV, the non-specific binding call was “binds”.

SKGRGAWD: the non-specific binding call is reported as “binds”.

Turning to VKGRGSLF, the non-specific binding call is on record as “binds”.

For the variant FKGRGAVD, the non-specific binding call is “binds”.

With FKGRGAVY, the non-specific binding call is “binds”.

Regarding SKGRSSWS, the non-specific binding call is “binds”.

SKGRSDGV: the non-specific binding call was “no binding”.

On to SKGRSDGA, for which the non-specific binding call is “no binding”.

As for YKGRGYGA, the non-specific binding call was “binds”.

With YKGRGYGD, the non-specific binding call is “binds”.

YKGRGYGF: the non-specific binding call was “binds”.

Regarding VKGRGSGS, the non-specific binding call is “binds”.

Regarding FKGRGSAA, the non-specific binding call is “binds”.

For the variant FKGRGSAD, the non-specific binding call is “binds”.

Regarding FKGTDSSD, the non-specific binding call was “binds”.

As to YKGRSSSS, the non-specific binding call is “binds”.

Turning to VKGRSDVY, the non-specific binding call was “no binding”.

With VKGRSFLV, the non-specific binding call is “binds”.

Regarding VKGTGVAY, the non-specific binding call was “binds”.

Take VKGRSVGY: the non-specific binding call is recorded as “binds”.

Regarding SKGRSSLA, the non-specific binding call was “no binding”.

With VKGRGYGA, the non-specific binding call is recorded as “binds”.

As to YKGRSAVY, the non-specific binding call is given as “binds”.

For VKKEDAGD, the non-specific binding call is recorded as “no binding”.

As to YKGRGYLV, the non-specific binding call was “no binding”.

FKGRGSLS: the non-specific binding call was “binds”.

In the case of FKGRGSLY, the non-specific binding call was “binds”.

FKGRGSLA: the non-specific binding call is “binds”.

As for YKGRGSWF, the non-specific binding call was “binds”.

On to YKGRGSWS, for which the non-specific binding call is reported as “binds”.

As to SKGRGAVY, the non-specific binding call is listed as “binds”.

On to FKGRGSGV, for which the non-specific binding call was “binds”.

Take FKGRGSGY: the non-specific binding call is “binds”.

With YKGRGDGY, the non-specific binding call is recorded as “binds”.

As to YKGRGDGD, the non-specific binding call is on record as “no binding”.

Turning to YKGRSAAA, the non-specific binding call is listed as “binds”.

Consider FKGRSASY, for which the non-specific binding call is reported as “binds”.

With AKGRGDGA, the non-specific binding call was “no binding”.

Turning to YKGRGFGD, the non-specific binding call was “binds”.

As to VKGRSDGV, the non-specific binding call is “no binding”.

For FKGRGFVV, the non-specific binding call is listed as “binds”.

For VKGTGFLD, the non-specific binding call is on record as “binds”.

For the variant SKGRGSAA, the non-specific binding call is “binds”.

For YKGRGYVA, the non-specific binding call is “binds”.

For the variant SKGTDDWV, the non-specific binding call was “no binding”.

For the variant YKGRGASD, the non-specific binding call is recorded as “binds”.

Turning to YKGRGASA, the non-specific binding call is given as “binds”.

Turning to YKGRGASV, the non-specific binding call is recorded as “binds”.

As for YKGRGASS, the non-specific binding call is reported as “binds”.

Turning to VKGRGDAA, the non-specific binding call was “no binding”.

Take VKGRGSVF: the non-specific binding call is given as “no binding”.

For YKGRGYWY, the non-specific binding call is given as “binds”.

As to YKGRGSLF, the non-specific binding call is reported as “binds”.

On to YKGRGSLY, for which the non-specific binding call is given as “binds”.

Consider YKGRGSLA, for which the non-specific binding call was “binds”.

With YKGRGSLV, the non-specific binding call was “binds”.

In the case of YKGRGSVD, the non-specific binding call is reported as “binds”.

Take YKGRGSVY: the non-specific binding call is on record as “binds”.

Consider VKGRGFWY, for which the non-specific binding call is recorded as “binds”.

Consider YKGTDAWY, for which the non-specific binding call is “no binding”.

As to YKGRGSAY, the non-specific binding call was “binds”.

Consider YKGRGSAF, for which the non-specific binding call is recorded as “binds”.

YKGRGYAV: the non-specific binding call was “binds”.

Consider YKGRGYAD, for which the non-specific binding call was “binds”.

In the case of YKGRGYAA, the non-specific binding call is “binds”.

Turning to YKGRGVGD, the non-specific binding call is given as “binds”.

Consider YKGRGVGA, for which the non-specific binding call is on record as “binds”.

Take YKGRGVGY: the non-specific binding call is “binds”.

YKGRGVGV: the non-specific binding call is listed as “binds”.

VKKESDSY: the non-specific binding call is recorded as “no binding”.

YKGRGDAD: the non-specific binding call is “binds”.

For VKGRGVGA, the non-specific binding call is “binds”.

On to VKGRGVGY, for which the non-specific binding call is recorded as “binds”.

As to VKGRGDSF, the non-specific binding call is reported as “no binding”.

Regarding FKGRGDGS, the non-specific binding call was “binds”.

Consider FKGRGSSS, for which the non-specific binding call is listed as “binds”.

YKGRGALS: the non-specific binding call was “binds”.

As to YKGRGALY, the non-specific binding call is recorded as “binds”.

YKGRGALF: the non-specific binding call was “binds”.

VKGRGAWA: the non-specific binding call is listed as “binds”.

On to VKGRGAWY, for which the non-specific binding call is recorded as “binds”.
